Molecular target: T1, proteasome subunit α2-K160C (S. cerevisiae, UniProt P23639 1-250, K160C)
T1 construct: 20S proteasome core particle subunit α2, S. cerevisiae, with an engineered cysteine at the α2-α3 interface; Detected with an anti-His antibody (TetraHis); also called His (α2); source: S. cerevisiae (WT or pba3Δ), in cell extract
T1 sequence (looked up): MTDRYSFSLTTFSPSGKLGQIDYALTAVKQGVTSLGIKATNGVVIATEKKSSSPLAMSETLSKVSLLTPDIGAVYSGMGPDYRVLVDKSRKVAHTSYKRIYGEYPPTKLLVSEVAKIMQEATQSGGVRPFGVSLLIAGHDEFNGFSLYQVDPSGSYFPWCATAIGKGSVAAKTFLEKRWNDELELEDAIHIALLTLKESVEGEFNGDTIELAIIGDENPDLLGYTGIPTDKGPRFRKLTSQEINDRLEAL
Experiment: cross-linking; engineered disulfide crosslinking in yeast extracts (WT or pba3Δ, empty vector or α1 overexpressed); 250 µM CuCl2, 25 °C, 10 minutes; 50 mM HEPES pH 7.5, 150 mM NaCl, 5 mM MgCl2, 2 mM ATP; non-reducing SDS-PAGE, anti-His immunoblot; reversed by DTT
Settings: partners not purified

fold increase in crosslinking (α1 overexpressed against empty vector, pba3Δ cells): 1.76 fold
B1: proteasome subunit α3-L56C (natural protein, S. cerevisiae, UniProt P23638 1-258, looked up)
chain: MGSRRYDSRTTIFSPEGRLYQVEYALESISHAGTAIGIMASDGIVLAAERKVTSTCLEQDTSTEKLYKLNDKIAVAVAGLTADAEILINTARIHAQNYLKTYNEDIPVEILVRRLSDIKQGYTQHGGLRPFGVSFIYAGYDDRYGYQLYTSNPSGNYTGWKAISVGANTSAAQTLLQMDYKDDMKVDDAIELALKTLSKTTDSSALTYDRLEFATIRKGANDGEVYQKIFKPQEIKDILVKTGITKKDEDEEADEDMK
notes: 20S proteasome core particle subunit α3, S. cerevisiae, with an engineered cysteine at the α2-α3 interface; source: S. cerevisiae (WT or pba3Δ), in cell extract
